Laboratory results from PMC5739296.

Target: Villin-1 (human (endogenous in HepG2)) (UniProt P09327)
Assay: co-IP

Sequence of UniProt P09327 (P09327 whole entry): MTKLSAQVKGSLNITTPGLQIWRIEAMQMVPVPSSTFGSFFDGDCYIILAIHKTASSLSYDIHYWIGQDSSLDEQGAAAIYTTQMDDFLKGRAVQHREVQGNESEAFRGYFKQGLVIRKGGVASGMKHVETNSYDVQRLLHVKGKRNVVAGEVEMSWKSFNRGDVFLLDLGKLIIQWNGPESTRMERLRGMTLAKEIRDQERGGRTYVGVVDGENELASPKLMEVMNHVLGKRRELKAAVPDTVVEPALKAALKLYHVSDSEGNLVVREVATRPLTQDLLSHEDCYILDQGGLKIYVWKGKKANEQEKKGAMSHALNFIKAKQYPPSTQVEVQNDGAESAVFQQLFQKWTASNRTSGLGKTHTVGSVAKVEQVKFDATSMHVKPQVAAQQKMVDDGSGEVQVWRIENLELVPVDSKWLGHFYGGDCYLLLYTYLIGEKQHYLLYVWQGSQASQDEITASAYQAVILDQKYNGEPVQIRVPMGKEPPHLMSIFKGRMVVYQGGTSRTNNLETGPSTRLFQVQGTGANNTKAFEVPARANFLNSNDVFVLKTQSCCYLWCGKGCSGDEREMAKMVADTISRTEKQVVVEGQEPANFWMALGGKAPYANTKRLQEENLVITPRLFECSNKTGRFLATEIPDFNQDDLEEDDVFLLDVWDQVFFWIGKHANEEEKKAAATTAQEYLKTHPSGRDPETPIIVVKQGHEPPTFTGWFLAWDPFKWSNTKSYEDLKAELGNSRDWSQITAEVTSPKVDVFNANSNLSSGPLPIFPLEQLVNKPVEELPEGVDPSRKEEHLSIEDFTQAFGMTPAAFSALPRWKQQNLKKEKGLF

fold change of co-precipitated actin after fusion against control: 28.7 fold
Substance: ß-actin (actin, cytoplasmic 1, ACTB) (from UniProt P60709 1-375) (natural protein)
